# Laboratory results: patent publication US20220151977A1, “Generation Of Water-Soluble Cannabinoids Utilizing Protein Cannabinoid-Carriers” (Trait Biosciences, Inc., priority 2019, published 2022)
# B1: 33 (protein, listed as Macleaya cordata)
# chain: MIRYSGRWFEVASLKRGFAGSGQEDCHCTQGVYTFDSEAPAIQVDTFCVHGGPDGYITGIRGKVQCLSEEDLEKNETDLEKRVMIREKCYLRFPTLPFIPKEPYDVIATDYDNFALVSGAKDTSFIQIYSRTPNPGPEFIEKYKSYLGNYGYDPSMIKDTPQ
# B2: SEQ ID NO. 33: OVA10565.1 Lipocalin/cytosolic fatty-acid binding domain (partial), Macleaya cordata (protein, listed as Macleaya cordata)
# chain: B1 chain
# B3: 30 (protein)
# chain: MAYSGRWYEVASLKRGFAGEGQQDCHCTQGIYTPKEGGPEGAIKLEVDTFCVHGGPGGRLSGIQGSVSCADPLLLSYLPEFQTEMEMVEGFVAKCALRFDSLAFLPPEPYVVLRTDYTSYALVRGAKDRSFVQIYSRTPNPGAKFIAEQKAVLGQLGYPANDIVDTPQDCPEMAPQ
# modifications: Micractinium conductrix
# B4: SEQ ID NO. 30: PSC68250.1 lipocalin-like domain (partial), Micractinium conductrix (protein)
# chain: B3 chain
# modifications: Micractinium conductrix
# notes: PSC68250.1 lipocalin-like domain (partial), Micractinium conductrix
# B5: 10 (protein)
# chain: MHVSTRQPCGAAPTAWPAQRPRSSPRRLACSAVLRDDARGVLQQAGLKLAAAAAAVLLAAPLHAGAASMPANAPLPALPPAPFDIEQSKQSKLLFDPMAYSGRWYEVASLKRGFAGEGQQDCHCTQGIYTPKEGGPEGAIKLEVDTFCVHGGPGGRLSGIQGSVSCADPLLLSYLPEFQTEMEMVEGFVAKCALRFDSLAFLPPEPYVVLRTDYTSYALVRGAKDRSFVQIYSRTPNPGAKFIAEQKAVLGQLGYPANDIVDTPQDCPEMAPQAMMAAMNRGMSSTPTMPASTPPALAMAGYDLGPAAVVLGEEAPAPVKGIAFDRLRNPLESLKNVFSLFN
# modifications: Micractinium conductrix
# B6: SEQ ID NO. 10: PSC68250.1 lipocalin-like domain, Micractinium conductrix (green algae) (protein)
# chain: B5 chain
# modifications: Micractinium conductrix
# B7: 1 (protein)
# chain: MTSTEKKDMKAVKGLDLERYMGRWYEIASFPSRFQPKDGVDTRATYTLNPDGTVHVLNETWNGGKRGFIQGSAYKADPKSDEAKLKVKFFVPPFLPVIPVTGDYWVLYIDPEYQHAVIGQPSRSYLWILSRTAHMEEETYKQLVEKAVEEGYDVSKLHKTPQSDTPPESNTAPDDTKGVWWLKSIFGK
# modifications: Cluster63 Unique
# B8: SEQ ID NO. 1: Cluster63 Unique, artificial consensus sequence based on a family of homologous plant lipocalin sequences (protein)
# chain: B7 chain
# modifications: Cluster63 Unique
# B9: SEQ ID NO. 148: Odorant-binding protein, partial, Heterocephalus glaber (naked mole-rat) (protein)
# chain: MINGDWCSIYIAADNVEKIEERGELRAYFCHIECQDECRNLSGGDRIMRNKHCCVGLSFRLDGVCQEFTVVGVKDEKSGVYITDYVGKNYFTVVESTEYITLFSNIIVDEKGTKMNVVLVAAKRDSLTEKEKQKFAQLAEEKGIPTENIRNVIAT
# modifications: Heterocephalus glaber
# B10: SEQ ID NO. 121: odorant-binding protein 1a-like, Mus caroli (Ryukyu mouse) (protein, listed as Mus caroli)
# chain: MVKFLLLELAFGLAHAQMYGPWKTIAIAADNVDKMEISGELRLYFHQITCEKECKKMNVTFYVDENGQCSLTTITGYLQDDGKTYRSQFQGDNHYATVRTTPENIVFYSENVDRAGRKTKLVYVVGKNGSGSLK
# Legend:
# [1] = Ligand binding assay by ANS displacement, THC; conditions: 2 μM protein, 20 μM ANS, 33 μM ligand, 20° C.; for binding to THC by ANS displacement (relative change in fluorescence): FIG. 8; for Purification Status (binding to THC): Table 3
# [2] = Ligand binding assay by ANS displacement, CBD; conditions: 2 μM protein, 20 μM ANS, 33 μM ligand, 20° C.; for binding to CBD by ANS displacement (relative change in fluorescence): FIG. 8; for Purification Status (binding to CBD): Table 3
Molecule,binding to THC by ANS displacement (relative change in fluorescence) [1],binding to CBD by ANS displacement (relative change in fluorescence) [2],Purification Status (binding to THC) [1],Purification Status (binding to CBD) [2],binding to THC by ANS displacement (relative change in fluorescence) ([1]; listed as OBP2),binding to CBD by ANS displacement (relative change in fluorescence) ([2]; listed as OBP2)
B1,bind to both THC and CBD,bind to both THC and CBD,,,,
B2,,,Binds to CBD,Binds to CBD,,
B3,bind to both THC and CBD,bind to both THC and CBD,,,,
B4,binds to THC better than full length,,Binds to CBD,Binds to CBD,,
B5,bind to both THC and CBD,bind to both THC and CBD,,,,
B6,,,Binds to CBD,Binds to CBD,,
B7,bind to both THC and CBD,bind to both THC and CBD,,,,
B8,,,Binds to CBD,Binds to CBD,,
B9,,,Binds to THC,Binds to THC,,
B10,,,Binds to THC,Binds to THC,highest binding affinity,highest binding affinity
